Source: patent US20120195910A1 (published 2012)
Where a chain is given by its changes, count along the chain named. Blank lines part the entries; values can stand above or below the binder they belong to.

What was measured:
[1] = target: Human PCSK9 (Genbank EF692496) containing a histidine (His)8 C-terminal tag (UniProt Q8NBP7 31-692); experiment: BIAcore SPR; FIG. 3A
biotinylated human PCSK9 = biotinylated human PCSK9 (UniProt Q8NBP7 31-692, biotinylated (sites not given)); experiment: competition binding ELISA (PCSK9-LDLR)

B1: YW508.20.84 (antibody, V domains shown)
VH: EVQLVESGGGLVQPGGSLRLSCAASGFTFTGYAIHWVRQAPGKGLEWVARISPANGNTNYADSVKGRFTISADTSKNTAYLQMNSLRAEDTAVYYCARWIGSRELYIMDYWGQGTLVTVSS
VL: DIQMTQSPSSLSASVGDRVTITCRASQDVSTAVAWYQQKPGKAPKLLIYSASFLYSGVPSRFSGSGSGTDFTLTISSLQPEDFATYYCQQSYPAPSTFGQGTKVEIKR
Kd [1]: 0.481 nM | IC50 (biotinylated human PCSK9): 1.39 nM

B4: YW508.20.06 (antibody, V domains shown)
VH: B1 VH
VL: B1 VL with A94S, S96A
Kd [1]: 0.628 nM | IC50 (biotinylated human PCSK9): 1 nM

B5: YW508.20.28 (antibody, V domains shown)
VH: B1 VH with G31R, Y32H, A33T
VL: B1 VL with P93R, A94I, P95Q, S96P
Kd [1]: 0.349 nM | IC50 (biotinylated human PCSK9): 1.05 nM

B6: YW508.20.33 (antibody, V domains shown)
VH: B1 VH with T30S, G31S, Y32T
VL: B1 VL with P95L, S96H
Kd [1]: 0.408 nM | IC50 (biotinylated human PCSK9): 1.31 nM

Next, values leading:

IC50 (biotinylated human PCSK9): 15.2 nM
B2: YW508.20 (antibody, V domains shown)
VH: B1 VH with A49G
VL: B1 VL with T31S, F53S, G66R, P93T, A94T, S96P

Kd [1]: 0.757 nM | IC50 (biotinylated human PCSK9): 0.92 nM
B3: YW508.20.04 (antibody, V domains shown)
VH: B1 VH with A49G
VL: B1 VL with S96A
